# In patent US20240132578A1:
# B1: PGT-130 (antibody, V domains shown)
# VH: QVQLQESGPGLVKPAETLSLTCSVSGESINTGHYYWGWVRQVPGKGLEWIGHIHYTTAVLHNPSLKSRLTIKIYTLRNQITLRLSNVTAADTAVYHCVRSGGDILYYYEWQKPHWFSPWGPGIHVTVSS
# VL: QSALTQPPSASGSLGQSVTISCNGTSSDIGGWNFVSWYQQFPGRAPRLIIFEVNKRPSGVPGRFSGSKSGNSASLTVSGLQSDDEGQYFCSSLFGRWDVVFGGGTKLTVL
# B2: PGT-123 (antibody, V domains shown)
# VH: QLHLQESGPGLVKPPETLSLTCSVSGASINDAYWSWIRQSPGKRPEWVGYVHHSGDTNYNPSLKRRVTFSLDTAKNEVSLKLVDLTAADSATYFCARALHGKRIYGIVALGELFTYFYMDVWGKGTAVTVSS
# VL: SSMSVSPGETAKISCGKESIGSRAVQWYQQKPGQPPSLIIYNNQDRPAGVPERFSASPDFRPGTTATLTITNVDAEDEADYYCHIYDARGGTNWVFDRGTTLTVL
# Key:
# Assay in all cases: cell-based or functional assay
# [1] = target: HIV-1 Env of isolate MGRM-G-017 (subtype G), on pseudovirus (HIV-1)
# [2] = target: HIV-1 Env of isolate MGRM-G-013 (subtype G), on pseudovirus (HIV-1)
# [3] = target: HIV-1 Env of isolate 6535.3 (subtype B) (HIV-1)
# [4] = target: HIV-1 Env of isolate MGRM-G-004 (subtype G), on pseudovirus (HIV-1)
# [5] = target: HIV-1 Env of isolate MGRM-G-024 (subtype G), on pseudovirus (HIV-1)
# [6] = target: HIV-1 Env of isolate 92BR020 (subtype B) (HIV-1)
# [7] = target: HIV-1 Env of isolate 93TH305 (subtype B) (HIV-1)
# [8] = target: HIV-1 Env of isolate MGRM-G-009 (subtype G), on pseudovirus (HIV-1)
# [9] = target: HIV-1 JR-CSF Env D474A (HIV-1 JR-CSF) (UniProt P20871)
# [10] = target: HIV-1 Env of isolate MGRM-G-025 (subtype G), on pseudovirus (HIV-1)
# [11] = target: HIV-1 Env of isolate APV 13 (subtype B) (HIV-1)
# [12] = target: HIV-1 Env of isolate MGRM-G-006 (subtype G), on pseudovirus (HIV-1)
# [13] = target: HIV-1 Env of isolate MGRM-G-027 (subtype G), on pseudovirus (HIV-1)
# [14] = target: HIV-1 Env of isolate MGRM-G-014 (subtype G), on pseudovirus (HIV-1)
# [15] = target: HIV-1 Env of isolate MGRM-G-019 (subtype G), on pseudovirus (HIV-1)
# [16] = target: HIV-1 Env of isolate MGRM-G-028 (subtype G), on pseudovirus (HIV-1)
# [17] = target: HIV-1 Env of isolate MGRM-G-015 (subtype G), on pseudovirus (HIV-1)
# [18] = target: HIV-1 Env of isolate MGRM-G-016 (subtype G), on pseudovirus (HIV-1)
# [19] = target: HIV-1 Env of isolate APV_17 (subtype B) (HIV-1)
# [20] = target: aMLV envelope, on pseudovirus (negative control)
# [21] = target: HIV-1 Env of isolate MGRM-G-001 (subtype G), on pseudovirus (HIV-1)
# [22] = target: HIV-1 Env of isolate MGRM-G-011 (subtype G), on pseudovirus (HIV-1)
# [23] = target: HIV-1 Env of isolate APV 6 (subtype B) (HIV-1)
# [24] = target: HIV-1 Env of isolate 98IN022 (subtype C) (HIV-1)
# [25] = target: HIV-1 Env of isolate MGRM-C-028 (subtype C) (HIV-1)
# [26] = target: HIV-1 Env of isolate MGRM-C-020 (subtype C) (HIV-1)
# [27] = target: HIV-1 Env of isolate MGRM-C-010 (subtype C) (HIV-1)
# [28] = target: HIV-1 Env of isolate MGRM-C-006 (subtype C) (HIV-1)
# [29] = target: HIV-1 Env of isolate MGRM-C-017 (subtype C) (HIV-1)
# [30] = target: HIV-1 Env of isolate MGRM-C-013 (subtype C) (HIV-1)
# [31] = target: HIV-1 Env of isolate MGRM-C-025 (subtype C) (HIV-1)
# [32] = target: HIV-1 Env of isolate MGRM-C-027 (subtype C) (HIV-1)
# [33] = target: HIV-1 JR-CSF Env R476A (HIV-1 JR-CSF) (UniProt P20871)
# [34] = target: HIV-1 Env of isolate MGRM-C-012 (subtype C) (HIV-1)
# [35] = target: HIV-1 Env of isolate MGRM-C-015 (subtype C) (HIV-1)
# [36] = target: HIV-1 JR-CSF Env D477A (HIV-1 JR-CSF) (UniProt P20871)
# [37] = target: HIV-1 Env of isolate MGRM-C-005 (subtype C) (HIV-1)
# [38] = target: HIV-1 Env of isolate MGRM-C-007 (subtype C) (HIV-1)
# [39] = target: HIV-1 Env of isolate 97ZA012 (subtype C) (HIV-1)
# [40] = target: HIV-1 Env of isolate MGRM-C-009 (subtype C) (HIV-1)
# [41] = target: HIV-1 Env of isolate MGRM-C-004 (subtype C) (HIV-1)
# [42] = target: HIV-1 Env of isolate MGRM-C-014 (subtype C) (HIV-1)
# [43] = target: HIV-1 Env of isolate MGRM-C-023 (subtype C) (HIV-1)
# [44] = target: HIV-1 Env of isolate 93MW959 (subtype C) (HIV-1)
# [45] = target: HIV-1 Env of isolate MGRM-C-019 (subtype C) (HIV-1)
# [46] = target: HIV-1 Env of isolate MGRM-C-026 (subtype C) (HIV-1)
# [47] = target: HIV-1 Env of isolate MGRM-C-022 (subtype C) (HIV-1)
# [48] = target: HIV-1 Env of isolate MGRM-C-008 (subtype C) (HIV-1)
# [49] = target: HIV-1 Env of isolate MGRM-C-002 (subtype C) (HIV-1)
# [50] = target: HIV-1 Env of isolate MGRM-C-001 (subtype C) (HIV-1)
# [51] = target: HIV-1 Env of isolate MGRM-C-024 (subtype C) (HIV-1)
binder,measurement,setting,value
B1,"IC50 (µg/mL), neutralization of pseudovirus",[1],> 50 µg/mL
same,"IC50 (µg/mL), neutralization of pseudovirus",[2],> 50 µg/mL
same,"IC50 (µg/mL), pseudovirus neutralization",[3],0.031 µg/mL
same,"IC50 (µg/mL), neutralization of pseudovirus",[4],> 50 µg/mL
same,"IC50 (µg/mL), neutralization of pseudovirus",[5],5.84 µg/mL
same,"IC50 (µg/mL), pseudovirus neutralization",[6],1.4 µg/mL
same,"IC50 (µg/mL), pseudovirus neutralization",[7],0.021 µg/mL
same,"IC50 (µg/mL), neutralization of pseudovirus",[8],> 50 µg/mL
same,Fold IC50 increase relative to wild-type,[9],2 fold
same,"IC50 (µg/mL), neutralization of pseudovirus",[10],8.45 µg/mL
same,"IC50 (µg/mL), pseudovirus neutralization",[11],0.052 µg/mL
same,"IC50 (µg/mL), neutralization of pseudovirus",[12],> 50 µg/mL
same,"IC50 (µg/mL), neutralization of pseudovirus",[13],4.14 µg/mL
same,"IC50 (µg/mL), neutralization of pseudovirus",[14],2.23 µg/mL
same,"IC50 (µg/mL), neutralization of pseudovirus",[15],27.9 µg/mL
same,"IC50 (µg/mL), neutralization of pseudovirus",[16],0.074 µg/mL
same,"IC50 (µg/mL), neutralization of pseudovirus",[17],> 50 µg/mL
same,"IC50 (µg/mL), neutralization of pseudovirus",[18],> 50 µg/mL
same,"IC50 (µg/mL), pseudovirus neutralization",[19],10.7 µg/mL
same,"IC50 (µg/mL), neutralization of pseudovirus",[20],> 50 µg/mL
same,"IC50 (µg/mL), neutralization of pseudovirus",[21],0.0198 µg/mL
same,"IC50 (µg/mL), neutralization of pseudovirus",[22],> 50 µg/mL
same,"IC50 (µg/mL), pseudovirus neutralization",[23],> 50 µg/mL
B2,"IC50 (µg/mL), pseudovirus neutralization",[24],0.011 µg/mL
same,"IC50 (µg/mL), pseudovirus neutralization",[25],0.402 µg/mL
same,"IC50 (µg/mL), neutralization of pseudovirus",[1],0.026 µg/mL
same,"IC50 (µg/mL), pseudovirus neutralization",[26],> 50 µg/mL
same,"IC50 (µg/mL), neutralization of pseudovirus",[2],3.97 µg/mL
same,"IC50 (µg/mL), pseudovirus neutralization",[27],> 50 µg/mL
same,"IC50 (µg/mL), pseudovirus neutralization",[28],0.021 µg/mL
same,"IC50 (µg/mL), neutralization of pseudovirus",[4],0.181 µg/mL
same,"IC50 (µg/mL), neutralization of pseudovirus",[5],0.032 µg/mL
same,"IC50 (µg/mL), neutralization of pseudovirus",[8],33.5 µg/mL
same,"IC50 (µg/mL), pseudovirus neutralization",[29],0.01 µg/mL
same,"IC50 (µg/mL), pseudovirus neutralization",[30],14.9 µg/mL
same,"IC50 (µg/mL), pseudovirus neutralization",[31],13.3 µg/mL
same,"IC50 (µg/mL), pseudovirus neutralization",[32],0.02 µg/mL
same,Fold IC50 increase relative to wild-type,[33],2 fold
same,"IC50 (µg/mL), neutralization of pseudovirus",[10],0.046 µg/mL
same,"IC50 (µg/mL), pseudovirus neutralization",[34],0.605 µg/mL
same,"IC50 (µg/mL), pseudovirus neutralization",[35],13.1 µg/mL
same,Fold IC50 increase relative to wild-type,[36],2.3 fold
same,"IC50 (µg/mL), neutralization of pseudovirus",[12],> 50 µg/mL
same,"IC50 (µg/mL), neutralization of pseudovirus",[13],0.182 µg/mL
same,"IC50 (µg/mL), pseudovirus neutralization",[37],0.012 µg/mL
same,"IC50 (µg/mL), neutralization of pseudovirus",[14],0.005 µg/mL
same,"IC50 (µg/mL), neutralization of pseudovirus",[15],0.008 µg/mL
same,"IC50 (µg/mL), neutralization of pseudovirus",[16],0.008 µg/mL
same,"IC50 (µg/mL), pseudovirus neutralization",[38],0.547 µg/mL
same,"IC50 (µg/mL), pseudovirus neutralization",[39],0.002 µg/mL
same,"IC50 (µg/mL), pseudovirus neutralization",[40],> 50 µg/mL
same,"IC50 (µg/mL), pseudovirus neutralization",[41],0.009 µg/mL
same,"IC50 (µg/mL), pseudovirus neutralization",[42],1 µg/mL
same,"IC50 (µg/mL), pseudovirus neutralization",[43],0.011 µg/mL
same,"IC50 (µg/mL), pseudovirus neutralization",[44],0.011 µg/mL
same,"IC50 (µg/mL), neutralization of pseudovirus",[17],> 50 µg/mL
same,"IC50 (µg/mL), neutralization of pseudovirus",[18],> 50 µg/mL
same,"IC50 (µg/mL), pseudovirus neutralization",[45],> 50 µg/mL
same,"IC50 (µg/mL), pseudovirus neutralization",[46],0.001 µg/mL
same,"IC50 (µg/mL), neutralization of pseudovirus",[20],> 50 µg/mL
same,"IC50 (µg/mL), neutralization of pseudovirus",[21],0.009 µg/mL
same,"IC50 (µg/mL), pseudovirus neutralization",[47],0.01 µg/mL
same,"IC50 (µg/mL), pseudovirus neutralization",[48],0.011 µg/mL
same,"IC50 (µg/mL), pseudovirus neutralization",[49],0.01 µg/mL
same,"IC50 (µg/mL), neutralization of pseudovirus",[22],14.9 µg/mL
same,"IC50 (µg/mL), pseudovirus neutralization",[50],42.4 µg/mL
same,"IC50 (µg/mL), pseudovirus neutralization",[51],0.195 µg/mL
